From patent publication US20070065890A1, “Method for promoting formation of facultative heterochromatin” (priority 2005, published 2007) come the findings set out here.

One assay concerns the target T1, recombinant human H1b (Homo sapiens, UniProt P10412).
T1 construct: Human histone H1b and H1° were inserted into HA-Pet30c; HA (N); made in house; host or cells: E. coli BL21 (DE3)
As to the kind of experiment: In vitro deacetylation of p300-acetylated recombinant H1b by SirT proteins. Format: biochemical. The following applies: equal NAD+-exchange units measured using acetylated BSA as substrate. As to the method: Detection of H1 acetylation was performed by using 4 μg of histone H1 (Upstate Biotechnology, Inc., Lake Placid, N.Y.) as an acetylated substrate for SirT1 in the NER. Deacetylation was determined by first performing a deacetylation assay using 20 and 40 μg of H1 and 6 nmol of SirT1. H1 was then isolated in the supernatant of chilled 5% perchloric acid, TCA precipitated (Albig, et al. (1998) FEBS Lett. 435:245-250), and resuspended in buffer C containing 100 mM KCl. Deacetylated H1 was then used in a subsequent NER. In vitro acetylation of H1 or recombinant H1b expressed in E. coli was carried out by incubating 10 μg H1 with 2 nmol baculovirus-generated p300 in the presence of 0.875 μCi [H^3]-Ac-CoA (Amersham, Piscataway, N.J.) in HAT buffer (75 mM Tris-HCl [pH 8.8], 135 mM NaCl). Deacetylation was carried out with the specified enzyme as above using 1 μg of the labeled Hi. […] Counts were then determined by liquid scintillation (PERKINELMER, Wellesley, Mass.) . […] In vivo H1 acetylation was analyzed by treating 293 cells for 18 hours in media containing 5 mM nicotinamide. H1 was purified as described (Albig, et al. (1998) supra) and analyzed in the NER. […]
SirT1 activity on histone H1 was directly tested in vitro. […] The same result was observed using recombinant human H1b; however, specificity was also scored in this assay using different SirT proteins.

The test system of assay [1] is pTK-Luc reporter under the control of Gal4. Description: Transient transfection Gal4 pTK-Luc reporter assay. Format: cell-based. The note with it: 293F cells, luciferase normalized to β-galactosidase. On the procedure:
Transfections. All transfections were carried out in 293F cells using the indicated plasmids and POLYFECT (QIAGEN, Valencia, Calif.) following the protocol provided by the manufacturer. Nuclear and cytoplasmic fractions were isolated by a modified protocol (Dignam, et al. (1983) Methods Enzymol. 101:582-598). Fractions were analyzed by immunoprecipitation with the indicated antibodies followed by immunoblotting, or by luciferase activity (TD20e luminometer; Turner BioSystems, Sunnyvale, Calif.) . In the case of transient transfections, a β-gal reporter was used as a transfection control and the levels of luciferase activity were normalized to those of β-galactosidase, shown as a percentage. dsRNAi was ordered as a custom SMARTPOOL against SirT1 (Dharmacon, Lafayette, Colo.) and was transfected into U2OS cells using RNAFECT (QIAGEN, Valencia, Calif.). After incubation for 48 hours, cells were harvested and lysed with RIPA buffer (50 mM Tris-HCl, pH 7.4, 1% NP40, 0.25% Na-deoxycholate, 150 mM NaCl, 1 mM EDTA, 1 mM PMSF, 1 mM leupeptin, 1 mM aprotinin, and 1 mM pepstatin). Western blots were performed using the indicated antibodies. Total H4 was visualized by both western and COOMASSIE blue staining.
Plasmids. […]
For orientation: Reporter assays use an easily measured gene product as a stand-in for the process of interest.

T1 sequence (P10412 2-219): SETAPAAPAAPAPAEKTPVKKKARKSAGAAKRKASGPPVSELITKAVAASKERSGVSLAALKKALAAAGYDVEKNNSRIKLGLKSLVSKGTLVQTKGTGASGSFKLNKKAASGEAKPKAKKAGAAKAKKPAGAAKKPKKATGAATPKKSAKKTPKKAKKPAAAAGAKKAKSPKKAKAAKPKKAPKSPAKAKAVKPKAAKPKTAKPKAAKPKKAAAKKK

B1: SirT3: Recombinant SirT3 expressed from baculovirus in SF9 cells (protein)
chain: MAFWGWRAAAALRLWGRVVERVEAGGGVGPFQACGCRLVLGGRDDVSAGLRGSHGARGEPLDPARPLQRPPRPEVPRAFRRQPRAAAPSFFFSSIKGGRRSISFSVGASSVVGSGGSSDKGKLSLQDVAELIRARACQRVVVMVGAGISTPSGIPDFRSPGSGLYSNLQQYDLPYPEAIFELPFFFHNPKPFFTLAKELYPGNYKPNVTHYFLRLLHDKGLLLRLYTQNIDGLERVSGIPASKLVEAHGTFASATCTVCQRPFPGEDIRADVMADRVPRCPVCTGVVKPDIVFFGEPLPQRFLLHVVDFPMADLLLILGTSLEVEPFASLTEAVRSSVPRLLINRDLVGPLAWHPRSRDVAQLGDVVHGVESLVELLGWTEEMRDLVQRETGKLDGPDK
On to B1, for which, in the assay with recombinant human H1b, the H1b deacetylation result is “failed to significantly deacetylate H1b”.

B2: G4-SirT1: SirT1 fused to the Gal4 DNA binding domain (protein)
chain: MKLLSSIEQACDICRLKKLKCSKEKPKCAKCLKNNWECRYSPKTKRSPLTRAHLTEVESRLERLEQLFLLIFPREDLDMILKMDSLQDIKALLTGLFVQDNVNKDAVTDRLASVETDMPLTLRQHRISATSSSEESSNKGQRQLTVSMADEAALALQPGGSPSAAGADREAASSPAGEPLRKRPRRDGPGLERSPGEPGGAAPEREVPAAARGCPGAAAAALWREAEAEAAAAGGEQEAQATAAAGEGDNGPGLQGPSREPPLADNLYDEDDDDEGEEEEEAAAAAIGYRDNLLFGDEIITNGFHSCESDEEDRASHASSSDWTPRPRIGPYTFVQQHLMIGTDPRTILKDLLPETIPPPELDDMTLWQIVINILSEPPKRKKRKDINTIEDAVKLLQECKKIIVLTGAGVSVSCGIPDFRSRDGIYARLAVDFPDLPDPQAMFDIEYFRKDPRPFFKFAKEIYPGQFQPSLCHKFIALSDKEGKLLRNYTQNIDTLEQVAGIQRIIQCHGSFATASCLICKYKVDCEAVRGDIFNQVVPRCPRCPADEPLAIMKPEIVFFGENLPEQFHRAMKYDKDEVDLLIVIGSSLKVRPVALIPSSIPHEVPQILINREPLPHLHFDVELLGDCDVIINELCHRLGGEYAKLCCNPVKLSEITEKPPRTQKELAYLSELPPTPLHVSEDSSSPERTSPPDSSVIVTLLDQAAKSNDDLDVSESKGCMEEKPQEVQTSRNVESIAEQMENPDLKNVGSSTGEKNERTSVAGTVRKCWPNRVAKEQISRRLDGNQYLFLPPNRYIFHGAEVYSDSEDDVLSSSSCGSNSDSGTCQSPSLEEPMEDESEIEEFYNGLEDEPDVPERAGGAGFGTDGDDQEAINEAISVKQEVTDMNYPSNKS
As to B2, in assay [1], the “repression of reporter expression” value is recorded as “approximately 100%”.

B3: SirT2: Recombinant SirT2 expressed in E. coli (protein)
chain: MAEPDPSHPLETQAGKVQEAQDSDSDSEGGAAGGEADMDFLRNLFSQTLSLGSQKERLLDELTLEGVARYMQSERCRRVICLVGAGISTSAGIPDFRSPSTGLYDNLEKYHLPYPEAIFEISYFKKHPEPFFALAKELYPGQFKPTICHYFMRLLKDKGLLLRCYTQNIDTLERIAGLEQEDLVEAHGTFYTSHCVSASCRHEYPLSWMKEKIFSEVTPKCEDCQSLVKPDIVFFGESLPARFFSCMQSDFLKVDLLLVMGTSLQVQPFASLISKAPLSTPRLLINKEKAGQSDPFLGMIMGLGGGMDFDSKKAYRDVAWLGECDQGCLALAELLGWKKELEDLVRREHASIDAQSGAGVPNPSTSASPKKSPPPAKDEARTTEREKPQ
In the case of B3, the H1b deacetylation entry with recombinant human H1b was “failed to significantly deacetylate H1b”.
